According to US20130196320A1, “METHOD FOR IMPROVING CLEAVAGE OF DNA BY ENDONUCLEASE SENSITIVE TO METHYLATION” (CELLECTIS, priority 2010, published 2013):
Values joined by “and” are separate entries in the source; they are usually repeats but may differ in a detail not shown here. Equal values may be shown once. Read-outs that look alike come from different tables or passages of the source.

Experiments:
C1221 DNA target = test: In vitro cleavage assay with C1221 duplex, increasing meganuclease concentration; assay type: biochemical
Method: FIG. 2: In vitro cleavage of unmethylated or methylated C1221 by I-CreI. A constant amount of C1221 (50 nM) was incubated with increasing concentrations of I-CreI (0 to 2 μM) in reaction buffer (10 mM Tris-HCl, 150 mM NaCl, 10 mM MgCl2, pH8) for an hour at 37° C. The reaction was stopped and the remaining uncleaved C1221 was quantify and plotted as function of I-CreI concentration.
FIG. 3: In vitro cleavage of unmethylated or methylated C1221 by I-CreI D75N. 50 nM C1221 containing either 0, 1, 2 or 3 methylated CG was incubated with increasing concentrations of I-CreI D75N (0 to 2 μM) in reaction buffer (10 mM Tris-HCl, 150 mM NaCl, 10 mM MgCl2, pH8) for an hour at 37° C. The reaction was stopped and cleaved and uncleaved C1221 (top and bottom panel respectively) were quantify and plotted as function of I-CreI D75N concentration.
To investigate the influence of C1221 methylation on the nuclease activity of I-CreI, an in vitro cleavage assay with either unmethylated or fully methylated C1221 duplex (SEQ ID NOs: 4-5 and 12-13 respectively) was performed. A constant amount of C1221 duplex (50 nM) was incubated with increasing concentration of I-CreI (0 to 2 μM) in a total volume of 25 μL of reaction buffer (10 mM Tris-HCl, 150 mM NaCl, 10 mM MgCl2, pH8). Cleavage reaction was allowed to proceed 1 hour at 37° C. and then stopped by addition of 5 μL of 6× stop buffer (45% glycerol, 95 mM EDTA, 1.5% (w/v) SDS, 1.5 mg/mL proteinase K and 0.048% (w/v) bromophenol blue) followed by an hour incubation at 37° C. Cleaved and uncleaved DNA products were separated by PAGE using a TGX Any kD precast gel (Bio-Rad), stained with SYBR Green and then quantified using Quantity One software (Bio-Rad).
To investigate the influence of C1221 methylation on the nuclease activity of I-CreI D75N, in vitro cleavage assay with C1221 duplex containing either 0, 1, 2 or 3 methylated CG (SEQ ID NOs: 4-5, 6-7, 8-9, 10-11 respectively) was performed, according to the procedure described for I-CreI wild type.

C1234 DNA target = test: In vitro single turn over cleavage assay with C1234 duplexes; assay type: biochemical
Method: FIG. 5: In vitro cleavage of unmethylated or methylated C1234 by I-Cre I wild type. A constant amount of C 1234 duplex (50 nM) was incubated with an excess of I-Cre I (1.5 μM, final concentration) in the reaction buffer (10 mM Tris-HCl, 150 mM NaCl, pH8) at 37° C. Cleavage reaction was triggered by the addition of MgCl2 and then stopped after different time lengths by the addition of the stop buffer. This was followed by one hour of incubation at 37° C. to digest I-Cre I and release free DNA molecules. Cleaved and uncleaved DNA products were separated by PAGE using a TGX Any kD precast gel (Bio-Rad), stained with SYBR Green and then quantified using Quantity One software (Bio-Rad). Disappearance of substrate (uncleaved DNA) is plotted as a function of time.
To investigate the influence of C1234 methylation on the nuclease activity of I-Cre I, in vitro single turn over cleavage assays were performed with either unmethylated or methylated C1234 duplexes (unmethylated C1234 composed of SEQ ID NO: 31+SEQ ID NO: 32, C1234_Me full composed of SEQ ID NO: 35+SEQ ID NO: 38, C1234_Me-6a/-5b composed of SEQ ID NO: 33+SEQ ID NO: 36, C1234_Me-3a/-2b composed of SEQ ID NO: 34+SEQ ID NO: 37, C1234_Me-3a composed of SEQ ID NO: 34+SEQ ID NO: 32, C1234_Me-2b composed of SEQ ID NO: 31+SEQ ID NO: 37, respectively). A constant amount of C1234 duplex (50 nM) was incubated with an excess of I-Cre I (1.5 μM, final concentration) in the reaction buffer (10 mM Tris-HCl, 150 mM NaCl, pH8) at 37° C. Cleavage reaction was triggered by the addition of MgCl2 and then stopped after different time lengths by the addition of the stop buffer (45% glycerol, 95 mM EDTA, 1.5% (w/v) SDS, 1.5 mg/mL proteinase K and 0.048% (w/v) bromophenol blue, final concentrations). This was followed by one hour incubation at 37° C. to digest I-Cre I and release free DNA molecules. Cleaved and uncleaved DNA products were separated by PAGE using a TGX Any kD precast gel (Bio-Rad), stained with SYBR Green and then quantified using Quantity One software (Bio-Rad).
To test the influence of C 1234 methylation on I-Cre I cleavage activity, single turn over cleavage assays in vitro were performed with unmethylated (composed of SEQ ID NO: 31+SEQ ID NO: 32) or with different methylated forms of C1234 (FIG. 5). In these assays C1234 was premixed to a large excess of recombinant meganucleases before addition of MgCl2. After different time lengths, the reaction was quenched by addition of a stop buffer, the remaining substrate was separated from the reaction product and then quantified. In these conditions, substrate disappearance was a first order process. The rate constant of this process corresponded to the turn over number (kcat) of the meganuclease. Turn over number measurement was not affected by affinity differences between methylated and unmethylated C1234 for I-Cre I because in our experimental conditions, the totality of C1234 was bound to the meganuclease at the beginning of reaction. In addition, this measurement was not affected by the rate limiting step of product release (Wang J, Kim H H, Yuan X, Herrin D L: Purification, biochemical characterization and protein-DNA interactions of the I-CreI endonuclease produced in Escherichia coli. Nucleic Acids Res 1997, 25:3767-3776) because the complex I-Cre I:cleaved C1234 product was artificially disrupted by the proteinase K and SDS present in the stop buffer.

B1: I-CreI: wild-type I-CreI meganuclease (… homing endonuclease), SEQ ID NO: 1, recombinant Cterm His-tag (protein, listed as Chlamydomonas reinhardtii)
chain: MNTKYNKEFLLYLAGFVDGDGSIIAQIKPNQSYKFKHQLSLTFQVTQKTQRRWFLDKLVDEIGVGYVRDRGSVSDYILSEIKPLHNFLTQLQPFLKLKQKQANLVLKIIEQLPSAKESPDKFLEVCTWVDQIAALNDSKTRKTTSETVRAVLDSLSEKKKSSP
modifications: C-terminal His-tag
C1221 DNA target; fully methylated C1221, 1 hour at 37° C., read-out: C50 (concentration of I-CreI needed to cleave 50% of C1221)
  EC50: > 2000 nM
C1221 DNA target; unmethylated C1221
  I-CreI concentration at which C1221 is totally cleaved: 250 nM
C1221 DNA target; unmethylated C1221, 1 hour at 37° C., read-out: C50 (concentration of meganuclease needed to cleave 50% of C1221)
  EC50: 100 nM
C1234 DNA target; C1234_Me full (fully methylated)
  kcat: <1.7e-06 s⁻¹
C1234 DNA target; C1234_Me-2b
  kcat: <1.7e-06 s⁻¹
C1234 DNA target; C1234_Me-3a
  kcat: 0.00095 ± 0.0001 s⁻¹
C1234 DNA target; C1234_Me-3a/-2b
  kcat: 3.3e-06 ± 5e-05 s⁻¹
C1234 DNA target; C1234_Me-6a/-5b
  kcat: 0.00033 ± 0.00012 s⁻¹
C1234 DNA target; C1234 methylated in position −2b
  effect of methylation on catalytic activity: almost totally inhibited it
C1234 DNA target; C1234 methylated in position −3a
  effect of methylation on catalytic activity: didn't affect 1-Cre I catalytic activity
C1234 DNA target; C1234 methylated in positions −3a and −2b (within the cleavage region)
  effect of methylation on catalytic activity: strongly affected the catalytic activity of I-Cre I
C1234 DNA target; C1234 methylated in positions −6a/−5b (outside the cleavage region)
  effect of methylation on catalytic activity: did not affect I-Cre I catalytic activity
C1234 DNA target; unmethylated C1234
  kcat: 0.000417 s⁻¹ and 0.000417 ± 3.3e-05 s⁻¹
